Data from patent publication US11344542B2, “Treatment of aging-associated disease with modulators of leukotriene A4 hydrolase” (Alkahest, Inc., priority 2018, dated 2022).

What was measured:
[1] = tested on: 8-week old (young) wild-type (C57BL/6) mice; assay: Open field test in young mice treated with recombinant human LTA4H protein; assay type: in vivo, mouse
Method: The open field test was used to evaluate general locomotor activity and exploratory behavior in a novel environment. It consisted of a square arena (50 cm×50 cm). Mice were brought to the experimental room for at least 30 min of acclimation to the experimental room conditions (dim lighting) prior to testing. Mice were placed in the center of the arena and tracked using automated software (CleverSys or San Diego Instruments) for 15 min. Total distance traveled, average velocity, and time spent in the peripheral and center zones were analyzed.
Recombinant human LTA4H (Bio-techne, 4008-SN) was buffer-exchanged into sterile PBS and dosed at 4.6 ug/150 uL by tail vein i.v. injection. SC-57461A (Cayman Chemical, 423169-68) stock solution was prepared at 10 mg/mL in DMSO. Stock solution was diluted into sterile PBS immediately prior to p.o. dosing to a final concentration of 10% DMSO and 1 mg/mL SC-57461A. Mice were p.o. dosed at 5 mg/kg. CP-105,696 (Sigma, PZ0363), Pinostilbene hydrate (Sigma, SML0098), and Montelukast (Cayman Chemical, 10008318) stock solutions were prepared at 30 mg/mL in EtOH/Solutol. Stock solutions were diluted into sterile PBS immediately prior to p.o. dosing to a final concentration of 10% EtOH and […] inhibitor. Administration to mice was performed p.o. at a dose of 10 mg/kg. Vehicle was 10% EtOH/Solutol and was dosed p.o. at a volume of 150 uL.
Young, 8-week old wild-type (WT; C57BL/6) mice were homogenized between groups by body weight. Following group determination, mice were injected intraperitoneally (IP) with BrdU (5-bromo-2′-deoxyuridine) formulated in PBS (phosphate buffered saline) at a final concentration of 10 mg/mL dosed at 150 mg/kg for 5 days Immediately following the BrdU dosing, group 1 was injected intravenously (IV) with PBS control and group 2 with recombinant human LTA4H protein daily for 7 consecutive days. One week after the completion of LTA4H administration, in week 3, mice in both treatment groups were injected IP with EdU (5-ethynyl-2′-deoxyuridine) formulated in PBS at a final concentration of 10 mg/mL and dosed at 50 mg/kg for 5 days. Behavioral assays were executed in week 5 and 6, and animals were sacrificed, and tissues collected immediately after completion of behavior testing in week 6. FIG. 3 depicts the treatment paradigm and injection timing for the study.
(§1) The initial study in young, 8-week old wild-type (WT; C57BL/6) mice was repeated in a second cohort of mice with additional timepoints and readouts. Mice were homogenized between 3 treatment groups by body weight. Group 1 (Vehicle) was injected intravenously (IV) with PBS control 3 times per week for 6 weeks, group 2 (LTA4H Pulse) with recombinant human LTA4H protein daily for 7 consecutive days, and group 3 (LTA4H Continuous) with recombinant human LTA4H protein 3 times per week for 6 weeks. In week 4 after the initiation of dosing, mice in all treatment groups were injected IP with BrdU (5-bromo-2′-deoxyuridine) formulated in PBS (phosphate buffered saline) at a final concentration of 10 mg/mL dosed at 150 mg/kg for 5 days. Behavioral assays were executed in week 5 and 6, and animals were sacrificed, and tissues collected immediately after completion of behavior testing in week 6. FIG. 10 depicts the treatment paradigm and injection timing for the study.

[2] = tested on: 8-week old (young) wild-type (C57BL/6) mice; assay: Y-maze in young mice treated with recombinant human LTA4H protein; assay type: in vivo, mouse
Method: A large Y-maze test assessed short-term memory of the familiarity of a specific context. Mice were brought to the experimental room for at least 30 min of acclimation to the experimental room conditions (dim lighting) prior to testing. For the initial training trial, the mouse was placed at the end of one arm of a large Y-maze designated “start arm” (arm length: 15 inches). The third arm of the maze was blocked off, allowing the mouse to explore two of the three arms freely (“start arm” and “familiar arm”) for 5 min. Each arm contained spatial cues. Three hours later, the mouse was placed back into the maze in the “start arm,” and allowed to explore all three arms with the third arm unblocked (“novel arm”). Movements in and out of each arm were tracked using automated tracking software (CleverSys or San Diego Instruments). Testing was performed under dim lighting, and the apparatus was cleaned with 70% ethanol between trials. The time spent and number of entireties into the “novel arm” and “familiar arm” were analyzed, as well as total distance travelled and velocity as measures of general locomotor activity.
as §1, with “study. […]” for “study.”

[3] = paradigm 1: IV daily for 7 consecutive days, vs PBS, tested week 5-6
[4] = paradigm 2: continuous dosing, IV 3 times per week for 6 weeks

B1: recombinant human LTA4H: Recombinant human LTA4H (Bio-techne, 4008-SN), leukotriene A4 hydrolase enzyme, dosed by tail vein i.v. injection (protein, UniProt P09960 2-611, looked up)
Leukotriene A-4 hydrolase: PEIVDTCSLASPASVCRTKHLHLRCSVDFTRRTLTGTAALTVQSQEDNLRSLVLDTKDLTIEKVVINGQEVKYALGERQSYKGSPMEISLPIALSKNQEIVIEISFETSPKSSALQWLTPEQTSGKEHPYLFSQCQAIHCRAILPCQDTPSVKLTYTAEVSVPKELVALMSAIRDGETPDPEDPSRKIYKFIQKVPIPCYLIALVVGALESRQIGPRTLVWSEKEQVEKSAYEFSETESMLKIAEDLGGPYVWGQYDLLVLPPSFPYGGMENPCLTFVTPTLLAGDKSLSNVIAHEISHSWTGNLVTNKTWDHFWLNEGHTVYLERHICGRLFGEKFRHFNALGGWGELQNSVKTFGETHPFTKLVVDLTDIDPDVAYSSVPYEKGFALLFYLEQLLGGPEIFLGFLKAYVEKFSYKSITTDDWKDFLYSYFKDKVDVLNQVDWNAWLYSPGLPPIKPNYDMTLTNACIALSQRWITAKEDDLNSFNATDLKDLSSHQLNEFLAQTLQRAPLPLGHIKRMQEVYNFNAINNSEIRFRWLRLCIQSKWEDAIPLALKMATEQGRMKFTRPLFKDLAAFDKSHDQAVRTYQEHKASMHPVTAMLVGKDLKVD
- anxiety as measured by percent time spent in periphery or center of the open field ([1]; paradigm 1: IV daily for 7 consecutive days, vs PBS): not affected
- average velocity in open field [1, 3]: no change
- total distance travelled in open field [1, 3]: no change
- average velocity in open field [1, 4]: significant reduction
- distance traveled in open field [1, 4]: significant reduction
- anxiety as measured by percent time spent in periphery or center of the open field ([1]; paradigm 2: either dosing paradigm (pulse or continuous)): not affected
- general locomotion as measured by total distance travelled and average velocity ([1]; paradigm 2: pulse dosing, IV daily for 7 consecutive days): impaired with continuous dosing of LTA4H, but not with pulse dosing
- memory of the familiar arm in Y-maze testing (novel vs familiar arm entries) ([2]; paradigm 2: continuous dosing): impaired memory
- memory of the familiar arm in Y-maze testing (novel vs familiar arm entries) ([2]; paradigm 2: pulse dosing): impaired memory
- number of entries into the familiar arm during Y-maze training ([2]; paradigm 2: pulse or continuous dosing, vs PBS): no differences
